Measured values taken from paper PMC9444977 (Cancer research, 2022).

Molecular target: T1, FHH-tagged Siah1, recombinant purified (UniProt Q8IUQ4 1-282, labeled with RED-tris-NTA 2nd generation dye (Monolith His-Tag labeling kit))
T1 sequence (looked up): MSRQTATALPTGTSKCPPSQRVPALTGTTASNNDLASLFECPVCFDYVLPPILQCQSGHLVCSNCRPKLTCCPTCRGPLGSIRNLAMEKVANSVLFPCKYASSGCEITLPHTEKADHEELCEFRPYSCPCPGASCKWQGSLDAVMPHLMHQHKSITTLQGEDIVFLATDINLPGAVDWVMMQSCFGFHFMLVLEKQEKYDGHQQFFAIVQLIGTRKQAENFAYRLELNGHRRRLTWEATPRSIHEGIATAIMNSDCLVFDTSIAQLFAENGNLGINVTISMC
Experiment: MST

B1: n-terminus FLAG-tagged CacyBP, recombinant purified (natural protein, UniProt Q9HB71 1-228, looked up)
chain: MASEELQKDLEEVKVLLEKATRKRVRDALTAEKSKIETEIKNKMQQKSQKKAELLDNEKPAAVVAPITTGYTVKISNYGWDQSDKFVKIYITLTGVHQVPTENVQVHFTERSFDLLVKNLNGKSYSMIVNNLLKPISVEGSSKKVKTDTVLILCRKKVENTRWDYLTQVEKECKEKEKPSYDTETDPSEGLMNVLKKIYEDGDDDMKRTINKAWVESREKQAKGDTEF
Work on B1 yielded a Kd of 9.8 µM.
